{"source": "patent US20220218659", "biological_target": "T1, Human ACLY, His-tagged, bacterially expressed and purified recombinant full length protein, P53396", "T1 chain": "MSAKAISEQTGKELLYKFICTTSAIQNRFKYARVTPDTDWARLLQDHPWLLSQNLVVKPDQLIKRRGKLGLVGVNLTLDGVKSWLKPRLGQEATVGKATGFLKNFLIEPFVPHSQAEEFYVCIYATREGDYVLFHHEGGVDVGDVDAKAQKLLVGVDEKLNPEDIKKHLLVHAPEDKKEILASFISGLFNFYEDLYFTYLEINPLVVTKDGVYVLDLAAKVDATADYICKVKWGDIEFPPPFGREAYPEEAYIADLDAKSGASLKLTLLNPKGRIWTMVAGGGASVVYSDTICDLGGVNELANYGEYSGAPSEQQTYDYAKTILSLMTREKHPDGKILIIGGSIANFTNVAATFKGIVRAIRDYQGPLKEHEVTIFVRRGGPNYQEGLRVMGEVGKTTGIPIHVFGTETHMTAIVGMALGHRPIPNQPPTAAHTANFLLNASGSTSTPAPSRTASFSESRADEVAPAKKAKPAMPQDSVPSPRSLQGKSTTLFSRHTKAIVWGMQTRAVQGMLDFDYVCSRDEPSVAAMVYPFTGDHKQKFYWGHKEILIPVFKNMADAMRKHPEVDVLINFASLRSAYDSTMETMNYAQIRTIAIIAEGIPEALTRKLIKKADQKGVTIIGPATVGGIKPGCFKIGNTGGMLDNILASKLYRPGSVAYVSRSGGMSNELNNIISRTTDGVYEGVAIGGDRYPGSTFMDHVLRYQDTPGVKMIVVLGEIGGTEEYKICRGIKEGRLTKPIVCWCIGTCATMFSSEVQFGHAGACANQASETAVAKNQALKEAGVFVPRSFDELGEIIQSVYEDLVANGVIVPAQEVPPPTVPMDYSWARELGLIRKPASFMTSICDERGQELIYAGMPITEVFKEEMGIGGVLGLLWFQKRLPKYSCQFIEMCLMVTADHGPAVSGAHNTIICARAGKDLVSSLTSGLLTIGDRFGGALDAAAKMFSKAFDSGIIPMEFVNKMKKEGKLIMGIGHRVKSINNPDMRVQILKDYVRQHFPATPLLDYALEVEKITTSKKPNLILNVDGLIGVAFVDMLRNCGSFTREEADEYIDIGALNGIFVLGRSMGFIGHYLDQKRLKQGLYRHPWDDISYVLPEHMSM", "data": [{"protein": "Active recombinant Lyn kinase (protein) MGCIKSKGKDSLSDDGVDLKTQPVRNTERTIYVRDPTSNKQQRPVPESQLLPGQRFQTKDPEEQGDIVVALYPYDGIHPDDLSFKKGEKMKVLEEHGEWWKAKSLLTKKEGFIPSNYVAKLNTLETEEWFFKDITRKDAERQLLAPGNSAGAFLIRESETLKGSFSLSVRDFDPVHGDVIKHYKIRSLDNGGYYISPRITFPCISDMIKHYQKQADGLCRRLEKACISPKPQKPWDKDAWEIPRESIKLVKRLGAGQFGEVWMGYYNNSTKVAVKTLKPGTMSVQAFLEEANLMKTLQHDKLVRLYAVVTREEPIYIITEYMAKGSLLDFLKSDEGGKVLLPKLIDFSAQIAEGMAYIERKNYIHRDLRAANVLVSESLMCKIADFGLARVIEDNEYTAREGAKFPIKWTAPEAINFGCFTIKSDVWSFGILLYEIVTYGKIPYPGRTNADVMTALSQGYRMPRVENCPDELYDIMKMCWKEKAEERPTFDYLQSVLDDFYTATEGQYQQQP", "values": [{"measurement": "ACLY tyrosine residues phosphorylated (phosphoproteomics)", "result": "The three ACLY tyrosine residues, Y682, Y252, Y227, were common for Lyn and Src"}, {"measurement": "number of ACLY tyrosine residues phosphorylated (in vitro kinase assay, phosphoproteomics) (tyrosine residues)", "result": 6}]}]}
